System: Escherichia coli TOP10
Test: shrunken log2 fold change of peptide-encoding DNA abundance (4.5 h post-induction vs induction); higher = less antimicrobial activity (less host growth inhibition)
Details: time post-induction: 4.5 h; library: site-saturation at positions 5, 18, 19, 20
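Note: peptides expressed intracellularly from a pBAD plasmid library in pooled LB shake-flask culture, induced with 0.3% L-arabinose, DNA abundance read by NGS, three biological replicates, DESeq2 with apeglm shrinkage.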

| Sequence | shrunken log2 fold change |
| --- | --- |
| RRIRWRPPRLPRPRPRPVDPPRP | 0.158 |
| RRIRHRPPRLPRPRPRPCYAPRP | -0.291 |
| RRIRVRPPRLPRPRPRPLWDPRP | 0.00404 |
| RRIRHRPPRLPRPRPRPFANPRP | -0.483 |
| RRIRFRPPRLPRPRPRPFGVPRP | -0.166 |
| RRIRVRPPRLPRPRPRPREHPRP | 0.322 |
| RRIRGRPPRLPRPRPRPAHQPRP | 0.65 |
| RRIRRRPPRLPRPRPRPKQFPRP | -0.00581 |
| RRIRCRPPRLPRPRPRPFGHPRP | 0.0616 |
| RRIRIRPPRLPRPRPRPRWCPRP | -0.11 |
| RRIRNRPPRLPRPRPRPDGTPRP | -0.128 |
| RRIRSRPPRLPRPRPRPCIAPRP | -0.22 |
| RRIRWRPPRLPRPRPRPHTCPRP | -0.00188 |
| RRIRTRPPRLPRPRPRPHHPPRP | -0.135 |
| RRIRFRPPRLPRPRPRPKPPPRP | 1.35 |
| RRIRSRPPRLPRPRPRPFIDPRP | -0.0941 |
| RRIRWRPPRLPRPRPRPHTMPRP | -0.00694 |
| RRIRERPPRLPRPRPRPFNDPRP | -0.0864 |
| RRIRYRPPRLPRPRPRPECHPRP | 0.0154 |
| RRIRVRPPRLPRPRPRPAKPPRP | 0.296 |
| RRIRMRPPRLPRPRPRPHRDPRP | 0.169 |
| RRIRERPPRLPRPRPRPDWFPRP | -0.00866 |
| RRIRERPPRLPRPRPRPLVDPRP | -0.135 |
| RRIRLRPPRLPRPRPRPTRGPRP | 0.298 |
| RRIRRRPPRLPRPRPRPQYCPRP | -0.3 |

| Sequence | shrunken log2 fold change |
| --- | --- |
| RRIRERPPRLPRPRPRPHSNPRP | -0.255 |
| RRIRLRPPRLPRPRPRPSPLPRP | -0.192 |
| RRIRIRPPRLPRPRPRPWFLPRP | -0.802 |
| RRIRHRPPRLPRPRPRPDKIPRP | -0.042 |
| RRIRRRPPRLPRPRPRPDLKPRP | 0.162 |
| RRIRLRPPRLPRPRPRPQAGPRP | -0.0299 |
| RRIRCRPPRLPRPRPRPIRTPRP | -0.673 |
| RRIRTRPPRLPRPRPRPMDCPRP | -0.0416 |
| RRIRCRPPRLPRPRPRPICIPRP | -0.191 |
| RRIRFRPPRLPRPRPRPGTAPRP | 0.0678 |
| RRIRSRPPRLPRPRPRPPDDPRP | 0.488 |
| RRIRGRPPRLPRPRPRPDMTPRP | 3.09 |
| RRIRYRPPRLPRPRPRPRMDPRP | -0.0437 |
| RRIRPRPPRLPRPRPRPRTIPRP | 0.206 |
| RRIRYRPPRLPRPRPRPLVKPRP | -1.45 |
| RRIRKRPPRLPRPRPRPRHCPRP | 0.0472 |
| RRIRVRPPRLPRPRPRPQKRPRP | -0.0953 |
| RRIRCRPPRLPRPRPRPEFSPRP | 0.072 |
| RRIRERPPRLPRPRPRPGCYPRP | -0.151 |
| RRIRFRPPRLPRPRPRPCPTPRP | -0.0449 |
| RRIRDRPPRLPRPRPRPTSIPRP | 0.099 |
| RRIRRRPPRLPRPRPRPARFPRP | 0.709 |
| RRIRDRPPRLPRPRPRPIVGPRP | 0.145 |
| RRIRFRPPRLPRPRPRPFQKPRP | -0.00162 |
| RRIRVRPPRLPRPRPRPQPMPRP | 2.31 |

Source: the supplement of paper PMC9112550, “Optimization of the antimicrobial peptide Bac7 by deep mutational scanning” (BMC Biology, 2022)
